Reference: PMC4686714

Target: ENPP1-Fc fusion protein (not stated | not stated (human or mouse cDNA cloned)) (UniProt P22413)
Test: SEC-MALS; SEC-MALLS/UV/RI, Superose 6 10/30 HR column, PBSplus buffer, 0.3 ml/min; ENPP1-Fc at 100 nM to 1 uM measured at the apex of the eluting peak; three detector approach

stoichiometry N: 2
Substance: ENPP1-Fc fusion protein (from UniProt P22413 98-925)
